Source: article PMC7463542, “Automated GMP-Compliant Production of [^68Ga]Ga-DO3A-Tuna-2 for PET Microdosing Studies of the Glucagon Receptor in Humans” (Pharmaceuticals, 2020)

Experiments:
[1] = Storage stability of the aqueous precursor solution at −20 °C (formation of oxidized product); type: physicochemical; conditions: at least six months
[2] = Safety, pharmacology, and toxicology studies in animals; type: in vivo
[3] = type: physicochemical
Experimental: The aseptic production was conducted in a GMP grade A workstation (unidirectional laminar airflow workbench (LAFW)) situated in a cleanroom with GMP grade B air quality. The ^68Ge/^68Ga generator (GalliaPharm®, Eckert & Ziegler, Berlin, Germany) and Modular PharmLab labeling synthesis platform (Eckert & Ziegler Eurotope, Berlin, Germany) were placed in the LAFW. A high-performance liquid chromatography system (LaChrom, Hitachi, VWR) consisting of an L-2130 pump, UV detector (L-2400), and radiation flow detector (Bioscan) coupled in series was used for product quality control. Separation of the analytes was accomplished using an analytical column with a stationary reversed phase (C-4; Vydac-C4; 50 × 4.6 mm; particle size: 3 µm). The conditions were as follows: A = 10 mM trifluoroacetic acid in water; B = 100% acetonitrile (MeCN) with 10 mM TFA with UV-detection at 220 nm; linear gradient elution: 0 min at 24% B, 0–8 min from 24 to 45% B, 8–10 min at 45% B, 10–15 min at 24% B; flow rate was 2.0 mL/min. Data acquisition and handling were performed using the EZChrom Elite Software Package (version 1.3).
Quality control on the chemical purity, radiochemical purity, and determination of the peptide concentration was performed using UV-Radio-HPLC. The development and validation of the method were conducted using two different reversed-phase columns Vydac-C4 and Aeris-C4 with mobile phases of 0.1% TFA in water as the A mobile phase and 0.1% TFA in acetonitrile as the B mobile phase. The gradient of B increased from 25% to 40% within 30 min for Aeris-4 and B increased from 24 to 45% within 8 min, followed by 2 min of isocratic elution. The recovery of radioactivity from the analytical column was investigated, in order to confirm that no radioactive product or impurities were left on the column, by collecting HPLC effluent with and without an analytical column and measuring the radioactivity. The tests were performed for both the product ([^68Ga]Ga-DO3A-VS-Cys^40-Tuna-2) and free ^68Ga(III). Specificity, linearity, and precision as repeatability were validated for both UV- and radio-detectors.
Three successful sequential productions were performed for the manufacturing validation. A fraction of pre-determined volume was kept for the subsequent determination of ^68Ge content and solvent residual content. The stability of the product at room temperature was monitored by UV-radio-HPLC for 2 h.

[4] = Sensitivity of the labelled product to (radiolytic) oxidation; type: physicochemical; conditions: compared with [^68Ga]Ga-DO3A-VS-Cys^40-Exendin-4; labeling conditions
glucagon receptor (GCGR) [5] = molecular target: T1, glucagon receptor (GCGR) (Homo sapiens, UniProt P47871); type: in vivo, humans
T1 construct: strong liver uptake expected due to the high glucagon receptor expression on hepatocytes; from tissue; host or cells: liver (hepatocytes) of living human subjects with type 2 diabetes
T1 sequence (P47871 26-477): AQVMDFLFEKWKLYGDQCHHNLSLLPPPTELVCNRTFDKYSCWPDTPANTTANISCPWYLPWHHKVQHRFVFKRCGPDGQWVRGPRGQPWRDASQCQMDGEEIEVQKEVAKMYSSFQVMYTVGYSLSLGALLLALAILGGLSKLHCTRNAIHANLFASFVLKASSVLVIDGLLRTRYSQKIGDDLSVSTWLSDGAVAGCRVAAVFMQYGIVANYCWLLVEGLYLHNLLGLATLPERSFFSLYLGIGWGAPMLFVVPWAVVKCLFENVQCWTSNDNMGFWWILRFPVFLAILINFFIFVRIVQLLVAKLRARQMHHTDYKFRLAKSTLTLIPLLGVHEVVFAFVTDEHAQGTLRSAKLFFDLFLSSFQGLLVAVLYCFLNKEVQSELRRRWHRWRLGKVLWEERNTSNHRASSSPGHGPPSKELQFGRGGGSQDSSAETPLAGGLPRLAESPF
Source text: [^68Ga]Ga-DO3A-VS-Cys^40-Tuna-2 PET/CT was used for assessing the hepatic GCGR receptor density and availability within a phase Ib, open-label study investigating the receptor occupancy of a dual GLP1/GCG agonist (ClinicalTrials.gov: NCT03350191). The results of the full receptor occupancy study, as well as the human biodistribution and dosimetry of [^68Ga]Ga-DO3A-VS-Cys^40-Tuna-2, will be reported separately. The study was approved by the Swedish Medical Products Agency and the regional ethical review board (Dnr 2017/395; EudraCT nr. 2017-001789-23).
Briefly, individuals with T2D were enrolled in the study and signed informed consent. They (n = 13) were placed in the supine position with the liver in the 20 cm axial PET field of view of a Discovery MI PET/CT scanner (GE Healthcare). [^68Ga]Ga-DO3A-VS-Cys^40-Tuna-2 (target dose 0.5 MBq/kg, <0.2 µg/kg peptide) was administered intravenously as a bolus followed by a 60 min dynamic PET acquisition in list-mode. The PET list mode data were reconstructed into 30 frames (12 × 10, 6 × 30, 5 × 120, 5 × 300, 2 × 600 s) using an iterative VPFX-S algorithm (3 iterations, 3 subsets, matrix 256 × 256, Z-axis post-filter 3 mm) with all relevant corrections performed.

glucagon receptor (GCGR) [6] = conditions: in vitro and in vivo in rats and non-human primates; 16 (previous studies); cited from earlier work
Source text: The manufacturing process of [^68Ga]Ga-DO3A-VS-Cys^40-Tuna-2 was automated for clinical use to meet the radiation safety and good manufacturing practice (GMP) requirements. Methods: The automated synthesis platform (Modular-Lab PharmTrace, Eckert & Ziegler, E ...

Binding in the liver (glucagon receptor (GCGR) [5]; T2D patients, IV bolus, baseline examinations, 60 min dynamic PET)	Substance	Formation of oxidized product upon storage [1]	Toxicity related to the substance [2]	Stability: radiochemical purity 2 h postproduction [3]	RCP at ambient temperature for at least 2 h ([3]; ambient temperature, Figure 5, as stated in discussion)	Time for which the product was stable at ambient temperature ([3]; formulated product, ambient temperature, UV-radio-HPLC)	Radiochemical purity (RCP) after production, 1 h and 2 h post-production ([3]; formulated product, room temperature, radioactivity traces of Figure 5)	Sensitivity to oxidation [4]	Plasma kinetics (glucagon receptor (GCGR) [5]; in vivo, iv)	Binding to the glucagon receptor (GCGR) (glucagon receptor (GCGR) [6])
–	TzaD-SerQGTFTSDYSKQLDE*QRAK*EFIEWLLATGPESGAPPPS (sidechain bridge or staple) [DO3A-VS-Cys^40-Tuna-2, unlabelled precursor (GMP-grade API starting material): Tuna-2 peptide coupled to DOTA bifunctional chelator via Cys40 and vinyl sulfone linker]	no formation of the oxidized product was detected	no DO3A-VS-Cys^40-Tuna-2 related toxicity	–	–	–	–	–	–	–
strong binding in the liver	TzaD-SerQGTFTSDYSKQLDE*QRAK*EFIEWLLATGPESGAPPPS (sidechain bridge or staple) [[^68Ga]Ga-DO3A-VS-Cys^40-Tuna-2, ^68Ga-labeled peptide-based PET imaging agent targeting GCGR; 39-residue Tuna-2 coupled to DOTA chelator via Cys40 and vinyl sulfone linker]	–	–	97.9 ± 0.9%	over 95%	at least 2 h	over 98%	less sensitive to the oxidation	rapid plasma kinetics	high-affinity specific binding
